Changes are numbered by the printed parent chain. Numbers in names are those of the source.
B1: Human ETHE1 wild type (enzyme, UniProt O95571 8-254, looked up)
chain: VARRQLSQRGGSGAPILLRQMFEPVSCTFTYLLGDRESREAVLIDPVLETAPRDAQLIKELGLRLLYAVNTHCHADHITGSGLLRSLLPGCQSVISRLSGAQADLHIEDGDSIRFGRFALETRASPGHTPGCVTFVLNDHSMAFTGDALLIRGCGRTDFQQGCAKTLYHSVHEKIFTLPGDCLIYPAHDYHGFTVSTVEEERTLNPRLTLSCEEFVKIMGNLNLPKPQQIDFAVPANMRCGVQTPTA
notes: Holds about 1 mol iron per mol protein; also called ETHE1-WT; wild-type ETHE1; source: E. coli Bl21 DE3, purified (His-trap HP, Superdex 75 size exclusion)
B2: Human ETHE1-p.Arg163Gln (enzyme, UniProt O95571 8-254, looked up)
chain: B1 chain with R156Q
notes: also called ETHE1 R163Q; source: E. coli Bl21 DE3, purified (His-trap HP, Superdex 75 size exclusion)
B3: Human ETHE1-p.Arg163Trp (enzyme, UniProt O95571 8-254, looked up)
chain: B1 chain with R156W
notes: also called ETHE1 R163W; source: E. coli Bl21 DE3, purified (His-trap HP, Superdex 75 size exclusion)

Target: the molecule itself
Test: SEC; Superdex 75 in 50 mM Tris-HCl pH 7.5, 150 mM NaCl, column calibrated with standard proteins; native molecular mass determined; data not shown

Stoichiometry N, 2:
B1
B2
B3
